Source: the FLAb antibody collection (doi:10.7554/elife.23156)

B1: scFv; the commonest letter at each place (parent)
chain 1: EVKLDETGGGLVQPGRPMKLSCVASGFTFSDYWMNWVRQSPEKGLEWVAQIRNKPYNYETYYSDSVKGRFTISRDDSKSSVYLQMNNLRVEDMGIYYCTGSYYGMDYWGQGTSVTVS
chain 2: DVVMTQTPLSLPVSLGDQASISCRSSQSLVHSNGNTYLRWYLQKPGQSPKVLIYKVSNRFSGVPDRFSGSGSGTDFTLKISRVEAEDLGVYFCSQSTHVPWTFGGGTKLEIK

Legend:
fluorescein = variants of: B1; test: Kd (Tite-Seq); settings: with fluorescein; format: scFv 4-4-20, heavy + light
[1] = variants of: B1; test: yeast surface expression (ratio to wild type); higher = more expressed; settings: format: scFv 4-4-20, heavy + light

| Variant | Kd (fluorescein) | yeast surface expression [1] |
| --- | --- | --- |
| chain 1 S30Y M34H | ≥ 10 µM | 0.38 |
| chain 1 S30Y N35C | ≥ 10 µM | 0.686 |
| chain 1 S30Y V37H | ≥ 10 µM | 0.57 |
| chain 1 S30Y W33G | ≥ 10 µM | 0.602 |
| chain 1 S30Y W33L | ≥ 10 µM | 0.755 |
| chain 1 S30Y W36A | ≥ 10 µM | 0.404 |
| chain 1 S30Y W36N | ≥ 10 µM | 0.436 |
| chain 1 S30Y Y32P | ≥ 10 µM | 0.691 |
| chain 1 S30Y Y32S W33T | ≥ 10 µM | 0.934 |
| chain 1 S101A | 0.000724 µM | 0.836 |
| chain 1 S101A D106L | 0.00166 µM | 0.302 |
| chain 1 S101A G104N | ≥ 10 µM | 0.72 |
| chain 1 S101A Y102P | ≥ 10 µM | 0.793 |
| chain 1 S101A Y103E | 0.00966 µM | 1.23 |
| chain 1 S101A Y107E W108G | ≥ 10 µM | 0.353 |
| chain 1 S101A Y107S | 0.00175 µM | 0.854 |
| chain 1 S101C | ≥ 10 µM | 0.832 |
| chain 1 S101C D106I G109A | ≥ 10 µM | 0.168 |
| chain 1 S101C G104C | ≥ 10 µM | 0.33 |
| chain 1 S101C G104N G109R | ≥ 10 µM | 0.263 |
| chain 1 S101C G104V D106F | ≥ 10 µM | 0.361 |
| chain 1 S101C G109A | ≥ 10 µM | 0.363 |
| chain 1 S101C G109D | ≥ 10 µM | 0.328 |
| chain 1 S101C G109N | ≥ 10 µM | 0.251 |

| Variant | Kd (fluorescein) | yeast surface expression [1] |
| --- | --- | --- |
| chain 1 S101C M105I | ≥ 10 µM | 0.826 |
| chain 1 S101C M105Y Y107D | ≥ 10 µM | 0.281 |
| chain 1 S101C M105Y Y107T | ≥ 10 µM | 0.488 |
| chain 1 S101C Y103L | ≥ 10 µM | 0.522 |
| chain 1 S101C Y103V D106I | ≥ 10 µM | 0.168 |
| chain 1 S101C Y107C | ≥ 10 µM | 0.493 |
| chain 1 S101C Y107G | ≥ 10 µM | 0.245 |
| chain 1 S101C Y107S | ≥ 10 µM | 0.457 |
| chain 1 S101C Y107T | ≥ 10 µM | 0.62 |
| chain 1 S101D | ≥ 10 µM | 0.888 |
| chain 1 S101D D106C W108N | ≥ 10 µM | 0.369 |
| chain 1 S101D D106K | ≥ 10 µM | 0.435 |
| chain 1 S101D D106N | ≥ 10 µM | 0.813 |
| chain 1 S101D D106R W108I | 0.00251 µM | 0.452 |
| chain 1 S101D G104D Y107K | ≥ 10 µM | 0.674 |
| chain 1 S101D G104H D106A | ≥ 10 µM | 0.353 |
| chain 1 S101D G109H | ≥ 10 µM | 0.247 |
| chain 1 S101D G109I | ≥ 10 µM | 0.22 |
| chain 1 S101D M105T | ≥ 10 µM | 0.799 |
| chain 1 S101D W108A | ≥ 10 µM | 0.443 |
| chain 1 S101D W108N | ≥ 10 µM | 0.445 |
| chain 1 S101D W108Y | ≥ 10 µM | 0.608 |
| chain 1 S101D Y102F | ≥ 10 µM | 0.93 |
| chain 1 S101D Y102P | ≥ 10 µM | 0.719 |

| Variant | Kd (fluorescein) | yeast surface expression [1] |
| --- | --- | --- |
| chain 1 S101D Y103A | ≥ 10 µM | 1.07 |
| chain 1 S101D Y103K | ≥ 10 µM | 0.764 |
| chain 1 S101D Y107E | ≥ 10 µM | 1.03 |
| chain 1 S101D Y107I | ≥ 10 µM | 1.02 |
| chain 1 S101D Y107S | ≥ 10 µM | 0.672 |
| chain 1 S101E | ≥ 10 µM | 0.838 |
| chain 1 S101E G104K M105C | ≥ 10 µM | 0.346 |
| chain 1 S101E G104S | ≥ 10 µM | 0.804 |
| chain 1 S101E M105V D106P | ≥ 10 µM | 0.387 |
| chain 1 S101E W108G | ≥ 10 µM | 0.368 |
| chain 1 S101E W108H | ≥ 10 µM | 0.374 |
| chain 1 S101E W108K | ≥ 10 µM | 0.375 |
| chain 1 S101E Y102Q W108C | ≥ 10 µM | 0.541 |
| chain 1 S101F | ≥ 10 µM | 0.596 |
| chain 1 S101F G104I | ≥ 10 µM | 0.187 |
| chain 1 S101F G104L | ≥ 10 µM | 0.778 |
| chain 1 S101F G104Q | ≥ 10 µM | 0.241 |
| chain 1 S101F G109S | ≥ 10 µM | 0.424 |
| chain 1 S101F M105G | ≥ 10 µM | 0.559 |
| chain 1 S101F M105I | ≥ 10 µM | 0.522 |
| chain 1 S101F M105L | ≥ 10 µM | 0.483 |
| chain 1 S101F W108E | ≥ 10 µM | 0.216 |
| chain 1 S101F W108F | ≥ 10 µM | 0.199 |
| chain 1 S101F W108K | ≥ 10 µM | 0.217 |

| Variant | Kd (fluorescein) | yeast surface expression [1] |
| --- | --- | --- |
| chain 1 S101F W108S G109S | ≥ 10 µM | 0.242 |
| chain 1 S101F Y102A | ≥ 10 µM | 0.623 |
| chain 1 S101G | ≥ 10 µM | 0.901 |
| chain 1 S101G D106A | 0.0457 µM | 0.675 |
| chain 1 S101G G104Y | ≥ 10 µM | 0.901 |
| chain 1 S101G M105A | ≥ 10 µM | 0.988 |
| chain 1 S101G M105E D106R | ≥ 10 µM | 0.604 |
| chain 1 S101G W108R | ≥ 10 µM | 0.436 |
| chain 1 S101G Y102L | ≥ 10 µM | 1.06 |
| chain 1 S101G Y103C | ≥ 10 µM | 0.678 |
| chain 1 S101G Y103R | ≥ 10 µM | 0.949 |
| chain 1 S101G Y107K | ≥ 10 µM | 0.907 |
| chain 1 S101H | ≥ 10 µM | 0.737 |
| chain 1 S101H D106C | ≥ 10 µM | 0.467 |
| chain 1 S101H G109V | ≥ 10 µM | 0.231 |
| chain 1 S101H M105V | ≥ 10 µM | 0.592 |
| chain 1 S101H W108C | ≥ 10 µM | 0.28 |
| chain 1 S101H W108Y | ≥ 10 µM | 0.408 |
| chain 1 S101H Y102R | ≥ 10 µM | 0.96 |
| chain 1 S101H Y103L | ≥ 10 µM | 0.78 |
| chain 1 S101H Y103N | ≥ 10 µM | 0.984 |
| chain 1 S101H Y103Q | ≥ 10 µM | 0.871 |
| chain 1 S101H Y107R | ≥ 10 µM | 0.581 |
| chain 1 S101H Y107R W108C | ≥ 10 µM | 0.22 |

| Variant | Kd (fluorescein) | yeast surface expression [1] |
| --- | --- | --- |
| chain 1 S101I | ≥ 10 µM | 0.521 |
| chain 1 S101I G104K | ≥ 10 µM | 0.482 |
| chain 1 S101I G104Q | ≥ 10 µM | 0.397 |
| chain 1 S101I G104T | ≥ 10 µM | 0.4 |
| chain 1 S101I G109I | ≥ 10 µM | 0.219 |
| chain 1 S101I M105N | ≥ 10 µM | 0.482 |
| chain 1 S101I M105V | ≥ 10 µM | 0.468 |
| chain 1 S101I W108E | ≥ 10 µM | 0.21 |
| chain 1 S101I Y102L | ≥ 10 µM | 0.376 |
| chain 1 S101I Y102M | ≥ 10 µM | 0.621 |
| chain 1 S101I Y102T | ≥ 10 µM | 0.614 |
| chain 1 S101I Y102V | ≥ 10 µM | 0.488 |
| chain 1 S101I Y102W | ≥ 10 µM | 0.303 |
| chain 1 S101I Y103P M105E | ≥ 10 µM | 0.462 |
| chain 1 S101I Y103T W108D | ≥ 10 µM | 0.293 |
| chain 1 S101I Y107K | ≥ 10 µM | 0.29 |
| chain 1 S101I Y107Q | ≥ 10 µM | 0.376 |
| chain 1 S101K | ≥ 10 µM | 0.463 |
| chain 1 S101K D106M | ≥ 10 µM | 0.229 |
| chain 1 S101K D106V | ≥ 10 µM | 0.257 |
